Common to all, as to assay: mass photometry
For assay [1], the target named is T1, ACAD9_(A184S/SR194TS) (human, UniProt Q9H845 38-621, A184S | SR194TS).
T1 sequence: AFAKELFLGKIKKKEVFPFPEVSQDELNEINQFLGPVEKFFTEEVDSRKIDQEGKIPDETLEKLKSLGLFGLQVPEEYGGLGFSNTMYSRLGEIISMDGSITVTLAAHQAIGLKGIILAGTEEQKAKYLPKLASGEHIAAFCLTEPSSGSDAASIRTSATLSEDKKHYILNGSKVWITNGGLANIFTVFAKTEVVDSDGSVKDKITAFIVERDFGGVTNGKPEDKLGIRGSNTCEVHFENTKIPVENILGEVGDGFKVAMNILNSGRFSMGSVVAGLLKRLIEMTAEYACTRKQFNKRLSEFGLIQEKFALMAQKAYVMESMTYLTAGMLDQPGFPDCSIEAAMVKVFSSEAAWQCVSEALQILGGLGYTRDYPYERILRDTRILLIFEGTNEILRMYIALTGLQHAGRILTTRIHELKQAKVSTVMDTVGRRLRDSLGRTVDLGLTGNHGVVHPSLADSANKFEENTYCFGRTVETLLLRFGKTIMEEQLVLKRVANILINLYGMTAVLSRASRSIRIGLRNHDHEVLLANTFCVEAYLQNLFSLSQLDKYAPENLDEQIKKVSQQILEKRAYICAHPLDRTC

In assay [2] the target is T2, ACAD9WT (res. 38-621) (human, UniProt Q9H845 38-621).
T2 sequence: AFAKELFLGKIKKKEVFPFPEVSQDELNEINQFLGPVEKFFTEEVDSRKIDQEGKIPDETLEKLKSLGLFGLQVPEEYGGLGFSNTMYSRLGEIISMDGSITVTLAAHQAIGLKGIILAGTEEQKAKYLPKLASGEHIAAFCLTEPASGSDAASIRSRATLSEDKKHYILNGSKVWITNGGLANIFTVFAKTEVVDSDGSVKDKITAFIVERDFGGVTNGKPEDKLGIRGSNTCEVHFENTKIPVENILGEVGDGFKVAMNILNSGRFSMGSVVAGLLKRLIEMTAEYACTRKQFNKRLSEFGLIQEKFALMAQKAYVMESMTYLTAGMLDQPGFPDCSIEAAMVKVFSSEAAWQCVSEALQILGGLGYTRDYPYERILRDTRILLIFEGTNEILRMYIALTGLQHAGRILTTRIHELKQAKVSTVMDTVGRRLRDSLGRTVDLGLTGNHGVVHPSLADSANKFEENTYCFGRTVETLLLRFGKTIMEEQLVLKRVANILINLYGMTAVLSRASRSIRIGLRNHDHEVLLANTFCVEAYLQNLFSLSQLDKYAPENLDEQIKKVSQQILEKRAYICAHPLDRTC

For assay [3], the target named is T3, VLCAD_(ACAD9) (human, UniProt P49748 72-655, 437MGGMGFM443 to 437LGGLGYT443).
T3 sequence: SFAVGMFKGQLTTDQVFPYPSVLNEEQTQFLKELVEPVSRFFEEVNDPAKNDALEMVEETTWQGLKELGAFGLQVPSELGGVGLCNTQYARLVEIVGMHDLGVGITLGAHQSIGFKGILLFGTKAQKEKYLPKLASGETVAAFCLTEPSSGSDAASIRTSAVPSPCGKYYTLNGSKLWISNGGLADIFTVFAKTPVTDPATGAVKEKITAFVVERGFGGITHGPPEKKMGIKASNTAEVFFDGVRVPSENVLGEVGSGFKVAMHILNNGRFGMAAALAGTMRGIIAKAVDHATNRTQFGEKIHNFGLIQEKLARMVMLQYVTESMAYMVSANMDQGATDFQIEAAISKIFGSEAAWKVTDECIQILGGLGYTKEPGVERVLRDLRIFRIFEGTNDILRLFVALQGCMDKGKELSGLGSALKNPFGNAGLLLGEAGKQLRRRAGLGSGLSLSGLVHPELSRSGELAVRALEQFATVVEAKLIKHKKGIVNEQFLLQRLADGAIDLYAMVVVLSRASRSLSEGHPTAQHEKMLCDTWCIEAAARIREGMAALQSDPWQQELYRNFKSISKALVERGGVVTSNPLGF

B1: ECSIT_(CTER) (residues 221-431) (domain or fragment)
chain: QDPVELAMFGLRHMEPDLSARVTIYQVPLPKDSTGAADPPQPHIVGIQSPDQQAALARHNPARPVFVEGPFSLWLRNKCVYYHILRADLLPPEEREVEETPEEWNLYYPMQLDLEYVRSGWDNYEFDINEVEEGPVFAMCMAGAHDQATMAKWIQGLQETNPTLAQIPVVFRLAGSTRELQTSSAGLEEPPLPEDHQEEDDNLQRQQQGQS
Take B1: the binding result in assay [1] and in assay [3] was “binds” in each case. The “stoichiometry N” value in assay [2] was 2 ECSIT_(CTER) monomers per ACAD9 dimer.

The record behind these values is paper doi:10.1101/2023.02.23.529646 (bioRxiv, 2023).
